Source: patent US20250073307A1 (Chugai, published 2025)
Like-named read-outs stand apart in the source and are kept apart here.

T1: mouse CXCR3 (mCXCR3) expressed on Ba/F3 transfectant cells (mouse, UniProt O88410 1-367)
T1 sequence (looked up): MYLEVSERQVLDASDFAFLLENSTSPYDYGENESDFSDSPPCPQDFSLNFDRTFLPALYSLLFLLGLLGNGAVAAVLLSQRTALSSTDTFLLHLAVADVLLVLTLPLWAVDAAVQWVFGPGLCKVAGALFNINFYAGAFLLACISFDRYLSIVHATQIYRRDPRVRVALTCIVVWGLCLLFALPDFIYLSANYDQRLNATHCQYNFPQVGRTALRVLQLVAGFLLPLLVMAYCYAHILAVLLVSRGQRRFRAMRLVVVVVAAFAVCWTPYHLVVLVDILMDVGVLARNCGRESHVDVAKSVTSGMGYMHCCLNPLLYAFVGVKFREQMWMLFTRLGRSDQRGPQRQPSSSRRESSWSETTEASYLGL


Legend:
Test in all cases: cell-based or functional assay
[1] = biological target: T1, mouse CXCR3 (mCXCR3) expressed on Ba/F3 …
[2] = biological target: T1, mouse CXCR3 (mCXCR3) expressed on Ba/F3 …; remark: listed apart in the source
[3] = biological target: T1, mouse CXCR3 (mCXCR3) expressed on Ba/F3 …; remark: listed apart in the source
[4] = biological target: T1, mouse CXCR3 (mCXCR3) expressed on Ba/F3 …; remark: listed apart in the source
[5] = biological target: T1, mouse CXCR3 (mCXCR3) expressed on Ba/F3 …; remark: listed apart in the source

| Binder | cell migration-inducing activity (BaF3/mCXCR3 transwell) at 3 nM, relative to hCXCL10R75A Fc fusion = 100% [2] | cell migration-inducing activity (BaF3/mCXCR3 transwell) at 10 nM, relative to hCXCL10R75A Fc fusion = 100% [2] | cell migration-inducing activity (BaF3/mCXCR3 transwell) at 30 nM, relative to hCXCL10R75A Fc fusion = 100% [2] | cell migration-inducing activity (BaF3/mCXCR3 transwell) at 100 nM, relative to hCXCL10R75A Fc fusion = 100% [2] | cell migration-inducing activity (BaF3/mCXCR3 transwell) at 300 nM, relative to hCXCL10R75A Fc fusion = 100% [2] | cell migration-inducing activity (BaF3/mCXCR3 transwell) at 1000 nM, relative to hCXCL10R75A Fc fusion = 100% [2] | cell migration-inducing activity at 3 nM, relative to hCXCL10R75A.0670 Fc fusion = 100% [4] | cell migration-inducing activity at 10 nM, relative to hCXCL10R75A.0670 Fc fusion = 100% [4] | cell migration-inducing activity at 30 nM, relative to hCXCL10R75A.0670 Fc fusion = 100% [4] | cell migration-inducing activity at 100 nM, relative to hCXCL10R75A.0670 Fc fusion = 100% [4] | cell migration-inducing activity at 300 nM, relative to hCXCL10R75A.0670 Fc fusion = 100% [4] | cell migration-inducing activity at 1000 nM, relative to hCXCL10R75A.0670 Fc fusion = 100% [4] | also measured |
| --- | --- | --- | --- | --- | --- | --- | --- | --- | --- | --- | --- | --- | --- |
| hCXCL10R75A.0642-G1T4k.one//VHn-G1T4h.one.H435R (Fc fusion) chain 1: VPLSRTVRCTCISISNQCVNPRSLEKLEIIPASQFCPRVEIIATMKKKGEKRCLNPESKCIKNLLKAVSKERSKASPEPKSSDKTHTCPPCPAPELRRGPSVFLFPPKPKDTLMISRTPEVTCVVVDVSHEDPEVKFNWYVDGVEVHNAKTKPREEQYNSTYRVVSVLTVLHQDWLNGKEYKCKVSNKGLPSSIEKTISKAKGQPREPQVCTLPPSREEMTKNQVSLWCLVKGFYPSDIAVEWESNGQPENNYKTTPPVLDSDGSFFLYSKLTVDKSRWQEGNVFSCSVMHEALHNHYTQKSLSLSP chain 2: EPKSSDKTHTCPPCPAPELRRGPSVFLFPPKPKDTLMISRTPEVTCVVVDVSHEDPEVKFNWYVDGVEVHNAKTKPREEQYNSTYRVVSVLTVLHQDWLNGKEYKCKVSNKGLPSSIEKTISKAKGQPREPQVYTLPPSRCEMTKNQVSLSCAVKGFYPSDIAVEWESNGQPENNYKTTPPVLDSDGSFFLVSKLTVDKSRWQEGNVFSCSVMHEALHNRYTQKSLSLSP | 196% | 150% | 106% | 98% | 116% | 80% |  |  |  |  |  |  | cell migration-inducing activity (BaF3/mCXCR3 transwell) at 3 nM, relative to hCXCL10R75A Fc fusion = 100% [1]: 196%; cell migration-inducing activity (BaF3/mCXCR3 transwell) at 10 nM, relative to hCXCL10R75A Fc fusion = 100% [1]: 150%; cell migration-inducing activity (BaF3/mCXCR3 transwell) at 30 nM, relative to hCXCL10R75A Fc fusion = 100% [1]: 106%; cell migration-inducing activity (BaF3/mCXCR3 transwell) at 100 nM, relative to hCXCL10R75A Fc fusion = 100% [1]: 98%; cell migration-inducing activity (BaF3/mCXCR3 transwell) at 300 nM, relative to hCXCL10R75A Fc fusion = 100% [1]: 116%; cell migration-inducing activity (BaF3/mCXCR3 transwell) at 1000 nM, relative to hCXCL10R75A Fc fusion = 100% [1]: 80% |
| hCXCL10R75A.0670-G1T4k.one//VHn-G1T4h.one.H435R (Fc fusion) chain 1: YVLSRTVRCTCISISNQCVNPRSLEKLEIIPASQFCPRVEIIATMKKKGEKRCLNPESKCIKNLLKAVSKERSKASPEPKSSDKTHTCPPCPAPELRRGPSVFLFPPKPKDTLMISRTPEVTCVVVDVSHEDPEVKFNWYVDGVEVHNAKTKPREEQYNSTYRVVSVLTVLHQDWLNGKEYKCKVSNKGLPSSIEKTISKAKGQPREPQVCTLPPSREEMTKNQVSLWCLVKGFYPSDIAVEWESNGQPENNYKTTPPVLDSDGSFFLYSKLTVDKSRWQEGNVFSCSVMHEALHNHYTQKSLSLSP chain 2: EPKSSDKTHTCPPCPAPELRRGPSVFLFPPKPKDTLMISRTPEVTCVVVDVSHEDPEVKFNWYVDGVEVHNAKTKPREEQYNSTYRVVSVLTVLHQDWLNGKEYKCKVSNKGLPSSIEKTISKAKGQPREPQVYTLPPSRCEMTKNQVSLSCAVKGFYPSDIAVEWESNGQPENNYKTTPPVLDSDGSFFLVSKLTVDKSRWQEGNVFSCSVMHEALHNRYTQKSLSLSP |  |  |  |  |  |  | 100% | 100% | 100% | 100% | 100% | 100% | cell migration-inducing activity (BaF3/mCXCR3 transwell) at 3 nM, relative to hCXCL10R75A Fc fusion = 100% [3]: 195%; cell migration-inducing activity (BaF3/mCXCR3 transwell) at 10 nM, relative to hCXCL10R75A Fc fusion = 100% [3]: 146%; cell migration-inducing activity (BaF3/mCXCR3 transwell) at 30 nM, relative to hCXCL10R75A Fc fusion = 100% [3]: 132%; cell migration-inducing activity (BaF3/mCXCR3 transwell) at 100 nM, relative to hCXCL10R75A Fc fusion = 100% [3]: 132%; cell migration-inducing activity (BaF3/mCXCR3 transwell) at 300 nM, relative to hCXCL10R75A Fc fusion = 100% [3]: 127%; cell migration-inducing activity (BaF3/mCXCR3 transwell) at 1000 nM, relative to hCXCL10R75A Fc fusion = 100% [3]: 24% |
| hCXCL10R75A.0643-G1T4k.one//VHn-G1T4h.one.H435R (Fc fusion) chain 1: YVLSRTVRCTCISISNQPVNPRSLEKLEIIPASQFCPRVEIIATMKKKGEKRCLNPESKAIKNLLKAVSKERSKASPEPKSSDKTHTCPPCPAPELRRGPSVFLFPPKPKDTLMISRTPEVTCVVVDVSHEDPEVKFNWYVDGVEVHNAKTKPREEQYNSTYRVVSVLTVLHQDWLNGKEYKCKVSNKGLPSSIEKTISKAKGQPREPQVCTLPPSREEMTKNQVSLWCLVKGFYPSDIAVEWESNGQPENNYKTTPPVLDSDGSFFLYSKLTVDKSRWQEGNVFSCSVMHEALHNHYTQKSLSLSP chain 2: EPKSSDKTHTCPPCPAPELRRGPSVFLFPPKPKDTLMISRTPEVTCVVVDVSHEDPEVKFNWYVDGVEVHNAKTKPREEQYNSTYRVVSVLTVLHQDWLNGKEYKCKVSNKGLPSSIEKTISKAKGQPREPQVYTLPPSRCEMTKNQVSLSCAVKGFYPSDIAVEWESNGQPENNYKTTPPVLDSDGSFFLVSKLTVDKSRWQEGNVFSCSVMHEALHNRYTQKSLSLSP |  |  |  |  |  |  |  |  |  |  |  |  | cell migration-inducing activity (BaF3/mCXCR3 transwell) at 3 nM, relative to hCXCL10R75A Fc fusion = 100% [5]: 126%; cell migration-inducing activity (BaF3/mCXCR3 transwell) at 10 nM, relative to hCXCL10R75A Fc fusion = 100% [5]: 100%; cell migration-inducing activity (BaF3/mCXCR3 transwell) at 30 nM, relative to hCXCL10R75A Fc fusion = 100% [5]: 129%; cell migration-inducing activity (BaF3/mCXCR3 transwell) at 100 nM, relative to hCXCL10R75A Fc fusion = 100% [5]: 141%; cell migration-inducing activity (BaF3/mCXCR3 transwell) at 300 nM, relative to hCXCL10R75A Fc fusion = 100% [5]: 124%; cell migration-inducing activity (BaF3/mCXCR3 transwell) at 1000 nM, relative to hCXCL10R75A Fc fusion = 100% [5]: 26% |
| hCXCL10R75A.0644-G1T4k.one//VHn-G1T4h.one.H435R (Fc fusion) chain 1: VVLSRTVRCTCISISNQCVNPRSLEKLEIIPASQFCPRVEIIATMKKKGEKRCLNPESKCIKNLLKAVSKERSKASPEPKSSDKTHTCPPCPAPELRRGPSVFLFPPKPKDTLMISRTPEVTCVVVDVSHEDPEVKFNWYVDGVEVHNAKTKPREEQYNSTYRVVSVLTVLHQDWLNGKEYKCKVSNKGLPSSIEKTISKAKGQPREPQVCTLPPSREEMTKNQVSLWCLVKGFYPSDIAVEWESNGQPENNYKTTPPVLDSDGSFFLYSKLTVDKSRWQEGNVFSCSVMHEALHNHYTQKSLSLSP chain 2: EPKSSDKTHTCPPCPAPELRRGPSVFLFPPKPKDTLMISRTPEVTCVVVDVSHEDPEVKFNWYVDGVEVHNAKTKPREEQYNSTYRVVSVLTVLHQDWLNGKEYKCKVSNKGLPSSIEKTISKAKGQPREPQVYTLPPSRCEMTKNQVSLSCAVKGFYPSDIAVEWESNGQPENNYKTTPPVLDSDGSFFLVSKLTVDKSRWQEGNVFSCSVMHEALHNRYTQKSLSLSP | 174% | 144% | 109% | 107% | 153% | 163% |  |  |  |  |  |  |  |
| hCXCL10R75A.0613-G1T4k.one//VHn-G1T4h.one.H435R (Fc fusion) chain 1: YVLSRTPRCTCISISNQCVNPRSLEKLEIIPASQFCPRVEIIATMKKKGEKRCLNPESKCIKNLLKAVSKERSKASPEPKSSDKTHTCPPCPAPELRRGPSVFLFPPKPKDTLMISRTPEVTCVVVDVSHEDPEVKFNWYVDGVEVHNAKTKPREEQYNSTYRVVSVLTVLHQDWLNGKEYKCKVSNKGLPSSIEKTISKAKGQPREPQVCTLPPSREEMTKNQVSLWCLVKGFYPSDIAVEWESNGQPENNYKTTPPVLDSDGSFFLYSKLTVDKSRWQEGNVFSCSVMHEALHNHYTQKSLSLSP chain 2: EPKSSDKTHTCPPCPAPELRRGPSVFLFPPKPKDTLMISRTPEVTCVVVDVSHEDPEVKFNWYVDGVEVHNAKTKPREEQYNSTYRVVSVLTVLHQDWLNGKEYKCKVSNKGLPSSIEKTISKAKGQPREPQVYTLPPSRCEMTKNQVSLSCAVKGFYPSDIAVEWESNGQPENNYKTTPPVLDSDGSFFLVSKLTVDKSRWQEGNVFSCSVMHEALHNRYTQKSLSLSP |  |  |  |  |  |  | 209% | 132% | 110% | 102% | 93% | 49% |  |
